As a reminder, the Kd is the free concentration of one partner at which half of the binding sites on the other are occupied at equilibrium, for simple one-to-one binding. The low end stands for a tighter complex, the high end for a looser complex.

Where two headings read alike, the source gives them in different places.

We go through two substances from patent publication US20240280570A1.

Experiment [1] addresses SARS-CoV-2 S1 (Sino Biological 40591-V08B1); Spike Protein S1 subunit residues 1 - 685(R) His tagged (SARS-CoV-2) (UniProt P0DTC2). The experiment in a line: method not stated at this place (SPR of viral targets is described in paragraph 219).
For experiment [2] the target is unchanged.
The target is the same in experiment [3]. The source holds these as a separate data set.
For experiment [4] the target is unchanged. This is another data set of the same source.
Experiment [5] has as its target MCA-SpyTag peptide. The experiment in a line: QCM-D, SpyTag peptide on HDT-coated gold, without BSA (data not shown).
The target of experiment [6] is MCA-SpyTag peptide.
Experiment [7] concerns the target SARS-CoV-2 S1 (Sino Biological 40591-V08B1); Spike Protein S1 subunit residues 1 - 685(R) His tagged (SARS-CoV-2) (UniProt P0DTC2). This is another data set of the same source.
For experiment [8] the target is unchanged. The experiment in a line: OECT sensor, PEDOT:PSS channel, nanobody on gate, target in buffer.
Experiment [9] deals with SARS-CoV-1 RBD (Sino Biological 40150-V08B2); Spike Receptor Binding Domain residues R306 - F527 His tagged (SARS-CoV-1) (UniProt P59594).
Experiment [10] has the same target. The experiment in a line: OECT sensor, PEDOT:PSS channel, nanobody on gate, target in buffer.

As to “VHH72-8 aa-spyCatcher-3C cleavage site-His8”, in [1], the equilibrium dissociation constant (Kd) was determined as 23 nM. In addition, the normalized response (NR) in [2] was 30%. Moreover, the LOD was found to be 1.8e-08 pM in experiment [3], 0.019 pM in [4], 1.2e-09 pM in [7] and 0.00028 pM in experiment [8]. Further, the mass density bound (QCM-D) turned out to be 407 ng cm-2 in experiment [5] and 430 ng cm-2 in experiment [6]. The substance also yielded a molecules bound per cm2 (QCM-D) (nanobodies per cm^2) in experiment [5] of 8.4e+12.
As to “VHH72-8 aa-spyCatcher-3C cleavage site-His8 (VHH; other documents disagree on this pair)”, the figures for the LOD in experiment [9] and in [10] were 1.6e-05 pM and 0.0015 pM, respectively.
